Data from publication PMC13335422 (The Journal of Experimental Medicine, 2026).
Substitutions are numbered along the chain they refer to.

B1: Fab10 (Fab of mAb 10) (Fab, V domains shown)
VH: EVQLVESGGGLVQPGGSLRLSCTASGFTFSSYMTHWVRQAPGKGLEWVSHISGDGTNTTYADTVKGRFFTSRDNVKNTLFLQMDSLRAEDTAVYFCARGSWYTTGWHRNYYFGMDVWGQGTTVTVSS
VL: DIVMTQSPLSLPVTPGEPASISCRSSQSLLHSNGYNYLDWYLQKPGRSPQLLIYLGSHRASGVPDRFSGDGSGTDFTLKISRVEAEDVGVYYCMQVLQTPSFGGGTKVEIK
notes: heavy variable domain as the heavy chain of m4 (mAb 10); constant part of the Fab heavy chain; as the light chain of m4 (mAb 10); The production of the Fabs is not described
B2: CAlleR 10 (anti-Bet v1 chimeric allergen receptor with the scFv of mAb 10, CD28 and CD3ζ domains) (other)
VH: B1 VH
VL: B1 VL
notes: scFv derived from mAb 10 (variable domains as in m4; GenBank within PZ143166-PZ143179); CD28 hinge, transmembrane and intracellular (costimulatory) domains; CD3ζ intracellular signaling domain; Second-generation CAR design in pCDH-EF1-FHC (Addgene 64874), as in Muller et al., 2021a; source: primary human T cells, lentivirally transduced, on cells
B3: CAlleR 11 (anti-Bet v1 chimeric allergen receptor with the scFv of mAb 11, CD28 and CD3ζ domains) (other)
VH: EVELLESGGGLVQPGGSLRLSCVGSGFTFPSYAMTWVRQAPGKGLEWVSAISGGGENSGGSTYYADSVKGRFTISRDNSKNTLFLQMSSLRAEDTAVYYCTREPVSWAFGSGTEYFDYWGQGTLVTVSS
VL: QSVLTQPPSASGTPGQRVTISCSGSSSNIGSNTVTWYHQLPGTAPKLLIYNNHRRPSGVPDRFSGSKSGTAASLGISGLQSEDEAAYYCATWDDSLKGWVFGGGTKLTVL
notes: scFv derived from mAb 11 (variable domains as in m5; GenBank within PZ143166-PZ143179); CD28 hinge, transmembrane and intracellular (costimulatory) domains; CD3ζ intracellular signaling domain; Second-generation CAR design in pCDH-EF1-FHC (Addgene 64874), as in Muller et al., 2021a; source: primary human T cells, lentivirally transduced, on cells
B4: Fab08 (Fab of mAb 8) (Fab, V domains shown)
VH: EVQLVQSGAEVKKPGDSLKISCKGSGYSFSNFWIGWVRQMPGKGLELMGIVYPGDSDTKYRPSFLGQVTISADKSIATAFLQWSRLTASDTAIYYCARLGATYAGADFWGQGTLVTVSS
VL: DIQMTQSPSSLSASVGDRVTITCRASQTIVTYLNWYQQKPGKAPKLLIYAASNLQSGVPSRFSGSGSGTDFTLTISSLQPEDFAIYYCQQSYAAFGEGTKVEIK
notes: heavy variable domain as the heavy chain of m3 (mAb 8, IGHV5-51); constant part of the Fab heavy chain; as the light chain of m3 (mAb 8, IGKV1-39); The production of the Fabs is not described
B5: CAlleR 8 (anti-Bet v1 chimeric allergen receptor with the scFv of mAb 8, CD28 and CD3ζ domains) (other)
VH: B4 VH
VL: B4 VL
notes: scFv derived from mAb 8 (variable domains as in m3; GenBank within PZ143166-PZ143179); CD28 hinge, transmembrane and intracellular (costimulatory) domains; CD3ζ intracellular signaling domain; Second-generation CAR design in pCDH-EF1-FHC (Addgene 64874), as in Muller et al., 2021a; The murine CAlleR 8 (mouse CD28 and CD3ζ domains) is another construct and has no row; source: primary human T …
B6: CAlleR 5 (anti-Bet v1 chimeric allergen receptor with the scFv of mAb 5, CD28 and CD3ζ domains) (other)
VH: EVQLVQSGAEVKKPGESLNISCNGSGYNFTKYWIAWVRQMPGKGLEWMGIIYPGDSDTKYRPSFQGQVTISADKSITTAYLQWSRLKVSDTAIYYCARLGATYGGADYWGQGTLVTVSS
VL: B4 VL with R24Q, T28S, T31N, N53S, I85T, K104T
notes: scFv derived from mAb 5 (variable domains as in m2; GenBank within PZ143166-PZ143179); CD28 hinge, transmembrane and intracellular (costimulatory) domains; CD3ζ intracellular signaling domain; Second-generation CAR design in pCDH-EF1-FHC (Addgene 64874), as in Muller et al., 2021a; source: primary human T cells, lentivirally transduced, on cells

Experiments:
[1] = molecular target: Recombinant Bet v1 (major birch pollen allergen Bet v1) (birch) (UniProt P15494); assay: ELISA
[2] = molecular target: Recombinant Bet v1 (major birch pollen allergen Bet v1) (birch) (UniProt P15494); assay: BLI
[3] = molecular target: T1, Recombinant Bet v1 (major birch pollen allergen Bet v1) (birch, biotin (biotinylated rBet v1 in the flow cytometry and in the IgE-blocking ELISA; site not stated)); assay: cryo-EM structure; Bet v1 complexed with threefold molar excess of Fab08 and Fab10; reconstruction at 4.8 Å, Cα positioning; details: both partners purified
T1 construct: Bet v1, major allergen of birch pollen (PR-10 family); codon-optimized synthetic gene in pET29b; PDB 4A81 was the Bet v1 model fitted into the cryo-EM map; One molecule for the plain and the biotinylated protein: same construct; also called rBet v1; biotinylated rBet v1
T1 chain: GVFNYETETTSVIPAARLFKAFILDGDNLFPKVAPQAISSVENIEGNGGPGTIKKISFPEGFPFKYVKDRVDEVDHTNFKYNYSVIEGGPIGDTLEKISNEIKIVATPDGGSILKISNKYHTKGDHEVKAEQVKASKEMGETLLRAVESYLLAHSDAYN

[4] = molecular target: T1, Recombinant Bet v1 (major birch pollen …); assay: flow cytometry on cells; transduced primary human T cells stained with biotinylated rBet v1 (1 μg/ml) and streptavidin-PE, 30 min at 4°C; mCherry reporter; details: one partner purified

Molecule | EC50 [1] | binding result [4] | further results
mAb 11 (human anti-Bet v1 IgG monoclonal antibody) (from UniProt P01857) | 4.26 ng/mL | – | Kd [2]: 3.61 nM
eB20 (human anti-Bet v1 antibody from an IgE clone) (from UniProt P01857) | 8.89 ng/mL | – | –
mAb 10 (human anti-Bet v1 IgG monoclonal antibody) (from UniProt P01857) | 7.26 ng/mL | – | –
B1 | – | – | binding result [3]: binds
B2 | – | binds | –
B3 | – | binds | –
B4 | – | – | binding result [3]: binds
B5 | – | binds | –
B6 | – | binds | –
